Reference: publication PMC4432619, “The structure of FMNL2–Cdc42 yields insights into the mechanism of lamellipodia and filopodia formation” (Nature Communications, 2015)
Each block holds one binder with its values, some of them ahead of it.

B3: FMNL1NCC (1–458, Δ172–198) (domain or fragment, human, UniProt O95466 1-458, looked up)
chain: MGNAAGSAEQPAGPAAPPPKQPAPPKQPMPAAGELEERFNRALNCMNLPPDKVQLLSQYDNEKKWELICDQERFQVKNPPAAYIQKLKSYVDTGGVSRKVAADWMSNLGFKRRVQESTQVLRELETSLRTNHIGWVQEFLNEENRGLDVLLEYLAFAQCSVTYDMESTDNGSRHLTIKLTPAHSRKALRNSRIVSQKDDVHVCIMCLRAIMNYQSGFSLVMNHPACVNEIALSLNNKNPRTKALVLELLAAVCLVRGGHDIILAAFDNFKEVCGEQHRFEKLMEYFRNEDSNIDFMVACMQFINIVVHSVENMNFRVFLQYEFTHLGLDLYLERLRLTESDKLQVQIQAYLDNIFDVGALLEDTETKNAVLEHMEELQEQVALLTERLRDAENESMAKIAELEKQLSQARKELETLRERFSESTAMGPSRR
notes: also called FMNL1NCC(Δ172–198); FMNL1 (1–458, Δ172–198); source: E. coli, purified (GSH Sepharose, TEV cleavage, gel filtration); not shown: GST, N-terminal, cleaved

Tests used:
[1] = biological target: myrFMNL2N (myristoylated FMNL2N, residues 2–379) (human, UniProt Q96PY5 2-379, N-terminal myristoylation (myrFMNL2N)); experiment: ITC; Cdc42·GppNHp titrated to myrFMNL2N at liposomes; 25 °C; conditions: both partners purified
[2] = biological target: T1, FMNL2N(Δloop) (residues 1–379, Δaa 144–218) (human, UniProt Q96PY5 1-379, Δaa 144–218); experiment: ITC; GppNHp-loaded GTPase at 500 μM injected from the syringe into 50 μM FMNL in the cell; 20 mM Tris/HCl pH 8, 150 mM NaCl, 5 mM MgCl2, 1 mM DTE, 298 K; MicroCal iTC200; conditions: both partners purified
T1 construct: source: E. coli, purified (GSH Sepharose, TEV cleavage, gel filtration); not shown: GST, N-terminal, cleaved

[3] = biological target: B3; experiment: crystal structure; complexes formed by equimolar mixing of the FMNL fragment with GppNHp-loaded Cdc42 (1–179) in high salt buffer and overnight dialysis at 277 K into 20 mM Tris/HCl pH 8.0, 150 mM NaCl, 5 mM MgCl2, 1 mM DTE; hanging drop vapour diffusion at 293 K; conditions: both partners purified
[4] = biological target: the molecule itself; experiment: SEC; size exclusion chromatography of full-length recombinant FMNL1 from insect cells; data not shown
[5] = biological target: the molecule itself; experiment: crystal structure; complexes formed by equimolar mixing of the FMNL fragment with GppNHp-loaded Cdc42 (1–179) in high salt buffer and overnight dialysis at 277 K into 20 mM Tris/HCl pH 8.0, 150 mM NaCl, 5 mM MgCl2, 1 mM DTE; hanging drop vapour diffusion at 293 K

T1 sequence (Q96PY5 other isoform, or with tags, fused parts or gaps Δaa 144–218 | Δaa 144–218 | mutant): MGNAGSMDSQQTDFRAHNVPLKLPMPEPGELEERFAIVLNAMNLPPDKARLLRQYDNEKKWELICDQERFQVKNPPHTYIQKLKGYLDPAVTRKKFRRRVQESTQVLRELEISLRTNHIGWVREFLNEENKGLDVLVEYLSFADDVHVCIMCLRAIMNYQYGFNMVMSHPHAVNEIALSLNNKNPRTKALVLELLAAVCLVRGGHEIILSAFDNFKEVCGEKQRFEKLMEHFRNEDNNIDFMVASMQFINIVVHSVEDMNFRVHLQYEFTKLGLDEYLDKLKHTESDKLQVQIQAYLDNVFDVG
Chain of myrFMNL2N (myristoylated FMNL2N, residues 2–379) (Q96PY5 2-379): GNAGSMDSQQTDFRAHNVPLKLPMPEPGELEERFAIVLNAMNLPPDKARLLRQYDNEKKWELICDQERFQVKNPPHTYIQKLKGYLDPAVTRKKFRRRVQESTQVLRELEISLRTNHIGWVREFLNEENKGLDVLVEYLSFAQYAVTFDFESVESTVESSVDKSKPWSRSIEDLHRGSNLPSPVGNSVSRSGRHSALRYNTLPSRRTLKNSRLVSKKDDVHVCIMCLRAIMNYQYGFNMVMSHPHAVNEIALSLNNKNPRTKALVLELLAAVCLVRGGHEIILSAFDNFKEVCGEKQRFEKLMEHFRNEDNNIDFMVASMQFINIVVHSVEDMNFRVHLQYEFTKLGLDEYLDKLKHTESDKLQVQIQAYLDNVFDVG

Kd [1]: 1790 ± 760 nM
dH [1]: -2.77 ± 0.29 kcal/mol
stoichiometry N [1]: 0.93
Kd [2]: 1340 ± 170 nM
dH [2]: -2.39 ± 0.04 kcal/mol
stoichiometry N [2]: 1
binding result [3]: binds
B1: Cdc42 (1–179) (domain or fragment)
chain: not shown
notes: Loaded with the non-hydrolysable GTP analogue GppNHp and Mg2+ in all rows written here; also called Cdc42·GppNHp; active Cdc42; source: E. coli, GST fusion, purified; nucleotide exchanged for GppNHp

B2: Full-length, recombinant FMNL1 protein (natural protein, human, UniProt O95466 1-1100, looked up)
chain: MGNAAGSAEQPAGPAAPPPKQPAPPKQPMPAAGELEERFNRALNCMNLPPDKVQLLSQYDNEKKWELICDQERFQVKNPPAAYIQKLKSYVDTGGVSRKVAADWMSNLGFKRRVQESTQVLRELETSLRTNHIGWVQEFLNEENRGLDVLLEYLAFAQCSVTYDMESTDNGASNSEKNKPLEQSVEDLSKGPPSSVPKSRHLTIKLTPAHSRKALRNSRIVSQKDDVHVCIMCLRAIMNYQSGFSLVMNHPACVNEIALSLNNKNPRTKALVLELLAAVCLVRGGHDIILAAFDNFKEVCGEQHRFEKLMEYFRNEDSNIDFMVACMQFINIVVHSVENMNFRVFLQYEFTHLGLDLYLERLRLTESDKLQVQIQAYLDNIFDVGALLEDTETKNAVLEHMEELQEQVALLTERLRDAENESMAKIAELEKQLSQARKELETLRERFSESTAMGPSRRPPEPEKAPPAAPTRPSALELKVEELEEKGLIRILRGPGDAVSIEILPVAVATPSGGDAPTPGVPTGSPSPDLAPAAEPAPGAAPPPPPPLPGLPSPQEAPPSAPPQAPPLPGSPEPPPAPPLPGDLPPPPPPPPPPPGTDGPVPPPPPPPPPPPGGPPDALGRRDSELGPGVKAKKPIQTKFRMPLLNWVALKPSQITGTVFTELNDEKVLQELDMSDFEEQFKTKSQGPSLDLSALKSKAAQKAPSKATLIEANRAKNLAITLRKGNLGAERICQAIEAYDLQALGLDFLELLMRFLPTEYERSLITRFEREQRPMEELSEEDRFMLCFSRIPRLPERMTTLTFLGNFPDTAQLLMPQLNAIIAASMSIKSSDKLRQILEIVLAFGNYMNSSKRGAAYGFRLQSLDALLEMKSTDRKQTLLHYLVKVIAEKYPQLTGFHSDLHFLDKAGSVSLDSVLADVRSLQRGLELTQREFVRQDDCMVLKEFLRANSPTMDKLLADSKTAQEAFESVVEYFGENPKTTSPGLFFSLFSRFIKAYKKAEQEVEQWKKEAAAQEAGADTPGKGEPPAPKSPPKARRPQMDLISELKRRQQKEPLIYESDRDGAIEDIITVIKTVPFTARTGKRTSRLLCEASLGEEMPL
notes: also called full-length FMNL1; source: expressed from insect cells
stoichiometry N [4]: 2

Binder: B3
binding result [5]: binds
